Test results: patent US20160264649A1

Tests used:
Assay in all cases: cell-based or functional assay
[1] = biological target: HIV-1 Env of isolate 92UG001 (subtype D) (HIV-1)
[2] = biological target: HIV-1 Env of isolate 92UG005 (subtype D) (HIV-1)
[3] = biological target: HIV-1 Env of isolate 92UG024 (subtype D) (HIV-1)
[4] = biological target: HIV-1 Env of isolate 92UG046 (subtype D) (HIV-1)
[5] = biological target: HIV-1 Env of isolate 92UG114 (subtype D) (HIV-1)
[6] = biological target: HIV-1 Env of isolate 98CN006 (subtype CRF08_BC) (HIV-1)
[7] = biological target: HIV-1 Env of isolate 98CN009 (subtype CRF07_BC) (HIV-1)
[8] = biological target: HIV-1 Env of isolate MGRM-D-001 (subtype D) (HIV-1)
[9] = biological target: HIV-1 Env of isolate MGRM-D-002 (subtype D) (HIV-1)
[10] = biological target: HIV-1 Env of isolate MGRM-D-003 (subtype D) (HIV-1)
[11] = biological target: HIV-1 Env of isolate MGRM-D-004 (subtype D) (HIV-1)
[12] = biological target: HIV-1 Env of isolate MGRM-D-005 (subtype D) (HIV-1)
[13] = biological target: HIV-1 Env of isolate MGRM-D-008 (subtype D) (HIV-1)
[14] = biological target: HIV-1 Env of isolate MGRM-D-011 (subtype D) (HIV-1)
[15] = biological target: HIV-1 Env of isolate MGRM-D-012 (subtype D) (HIV-1)
[16] = biological target: HIV-1 Env of isolate MGRM-D-013 (subtype D) (HIV-1)
[17] = biological target: HIV-1 Env of isolate MGRM-D-014 (subtype D) (HIV-1)
[18] = biological target: HIV-1 Env of isolate MGRM-D-016 (subtype D) (HIV-1)
[19] = biological target: HIV-1 Env of isolate MGRM-D-018 (subtype D) (HIV-1)
[20] = biological target: HIV-1 Env of isolate MGRM-D-019 (subtype D) (HIV-1)
[21] = biological target: HIV-1 Env of isolate MGRM-D-020 (subtype D) (HIV-1)
[22] = biological target: HIV-1 Env of isolate MGRM-D-021 (subtype D) (HIV-1)
[23] = biological target: HIV-1 Env of isolate MGRM-D-022 (subtype D) (HIV-1)
[24] = biological target: HIV-1 Env of isolate MGRM-D-024 (subtype D) (HIV-1)
[25] = biological target: HIV-1 Env of isolate MGRM-D-026 (subtype D) (HIV-1)
[26] = biological target: HIV-1 Env of isolate MGRM-D-028 (subtype D) (HIV-1)
[27] = biological target: HIV-1 Env of isolate MGRM-D-029 (subtype D) (HIV-1)
[28] = biological target: HIV-1 Env of isolate MGRM-F1-004 (subtype F) (HIV-1)
[29] = biological target: HIV-1 Env of isolate MGRM-F1-006 (subtype F) (HIV-1)
[30] = biological target: HIV-1 Env of isolate MGRM-F1-008 (subtype F) (HIV-1)
[31] = biological target: HIV-1 Env of isolate MGRM-F1-010 (subtype F) (HIV-1)
[32] = biological target: HIV-1 Env of isolate MGRM-F1-012 (subtype F) (HIV-1)
[33] = biological target: HIV-1 Env of isolate MGRM-F1-013 (subtype F) (HIV-1)
[34] = biological target: HIV-1 Env of isolate MGRM-F1-014 (subtype F) (HIV-1)
[35] = biological target: HIV-1 Env of isolate MGRM-F1-015 (subtype F) (HIV-1)
[36] = biological target: HIV-1 Env of isolate MGRM-F1-016 (subtype F) (HIV-1)
[37] = biological target: HIV-1 Env of isolate MGRM-F1-017 (subtype F) (HIV-1)
[38] = biological target: HIV-1 Env of isolate MGRM-F1-018 (subtype F) (HIV-1)
[39] = biological target: HIV-1 Env of isolate MGRM-F1-020 (subtype F) (HIV-1)
[40] = biological target: HIV-1 Env of isolate MGRM-F1-021 (subtype F) (HIV-1)
[41] = biological target: HIV-1 Env of isolate MGRM-F1-022 (subtype F) (HIV-1)
[42] = biological target: HIV-1 Env of isolate MGRM-F1-023 (subtype F) (HIV-1)
[43] = biological target: HIV-1 Env of pseudovirus isolate MGRM-G-001 (subtype G) (HIV-1)
[44] = biological target: HIV-1 Env of pseudovirus isolate MGRM-G-004 (subtype G) (HIV-1)
[45] = biological target: HIV-1 Env of pseudovirus isolate MGRM-G-006 (subtype G) (HIV-1)
[46] = biological target: HIV-1 Env of pseudovirus isolate MGRM-G-009 (subtype G) (HIV-1)
[47] = biological target: HIV-1 Env of pseudovirus isolate MGRM-G-011 (subtype G) (HIV-1)
[48] = biological target: HIV-1 Env of pseudovirus isolate MGRM-G-013 (subtype G) (HIV-1)
[49] = biological target: HIV-1 Env of pseudovirus isolate MGRM-G-014 (subtype G) (HIV-1)
[50] = biological target: HIV-1 Env of pseudovirus isolate MGRM-G-015 (subtype G) (HIV-1)
[51] = biological target: HIV-1 Env of pseudovirus isolate MGRM-G-016 (subtype G) (HIV-1)
[52] = biological target: HIV-1 Env of pseudovirus isolate MGRM-G-017 (subtype G) (HIV-1)
[53] = biological target: HIV-1 Env of pseudovirus isolate MGRM-G-019 (subtype G) (HIV-1)
[54] = biological target: HIV-1 Env of pseudovirus isolate MGRM-G-024 (subtype G) (HIV-1)
[55] = biological target: HIV-1 Env of pseudovirus isolate MGRM-G-025 (subtype G) (HIV-1)
[56] = biological target: HIV-1 Env of pseudovirus isolate MGRM-G-027 (subtype G) (HIV-1)
[57] = biological target: HIV-1 Env of pseudovirus isolate MGRM-G-028 (subtype G) (HIV-1)
[58] = biological target: envelope of aMLV pseudovirus (negative control)

B1: PGT-135 (antibody, V domains shown)
VH: QLQMQESGPGLVKPSETLSLSCTVSGDSIRGGEWGDKDYHWGWVRHSAGKGLEWIGSIHWRGTTHYKESLRRRVSMSIDTSRNWFSLRLASVTAADTAVYFCARHRHHDVFMLVPIAGWFDVWGPGVQVTVSS
VL: EIVMTQSPDTLSVSPGETVTLSCRASQNINKNLAWYQYKPGQSPRLVIFETYSKIAAFPARFVASGSGTEFTLTINNMQSEDVAVYYCQQYEEWPRTFGQGTKVDIK
- IC50 (neutralization) [1]: > 50 µg/mL
- IC50 (neutralization) [2]: > 50 µg/mL
- IC50 (neutralization) [3]: 0.01 µg/mL
- IC50 (neutralization) [4]: > 50 µg/mL
- IC50 (neutralization) [5]: 1.29 µg/mL
- IC50 (neutralization) [6]: 0.429 µg/mL
- IC50 (neutralization) [7]: 0.071 µg/mL
- IC50 (neutralization) [8]: > 50 µg/mL
- IC50 (neutralization) [9]: > 50 µg/mL
- IC50 (neutralization) [10]: > 50 µg/mL
- IC50 (neutralization) [11]: > 50 µg/mL
- IC50 (neutralization) [12]: > 50 µg/mL
- IC50 (neutralization) [13]: > 50 µg/mL
- IC50 (neutralization) [14]: 23.5 µg/mL
- IC50 (neutralization) [15]: > 50 µg/mL
- IC50 (neutralization) [16]: > 50 µg/mL
- IC50 (neutralization) [17]: 2.21 µg/mL
- IC50 (neutralization) [18]: > 50 µg/mL
- IC50 (neutralization) [19]: 0.039 µg/mL
- IC50 (neutralization) [20]: > 50 µg/mL
- IC50 (neutralization) [21]: > 50 µg/mL
- IC50 (neutralization) [22]: > 50 µg/mL
- IC50 (neutralization) [23]: > 50 µg/mL
- IC50 (neutralization) [24]: > 50 µg/mL
- IC50 (neutralization) [25]: > 50 µg/mL
- IC50 (neutralization) [26]: > 50 µg/mL
- IC50 (neutralization) [27]: 30.8 µg/mL
- IC50 (neutralization) [28]: 0.211 µg/mL
- IC50 (neutralization) [29]: > 50 µg/mL
- IC50 (neutralization) [30]: > 50 µg/mL
- IC50 (neutralization) [31]: > 50 µg/mL
- IC50 (neutralization) [32]: 0.01 µg/mL
- IC50 (neutralization) [33]: 21.1 µg/mL
- IC50 (neutralization) [34]: > 50 µg/mL
- IC50 (neutralization) [35]: 1.11 µg/mL
- IC50 (neutralization) [36]: > 50 µg/mL
- IC50 (neutralization) [37]: 7.79 µg/mL
- IC50 (neutralization) [38]: > 50 µg/mL
- IC50 (neutralization) [39]: 0.168 µg/mL
- IC50 (neutralization) [40]: 0.065 µg/mL
- IC50 (neutralization) [41]: 0.964 µg/mL
- IC50 (neutralization) [42]: 0.088 µg/mL
- IC50 [43]: 0.393 µg/mL
- IC50 [44]: > 50 µg/mL
- IC50 [45]: > 50 µg/mL
- IC50 [46]: > 50 µg/mL
- IC50 [47]: > 50 µg/mL
- IC50 [48]: > 50 µg/mL
- IC50 [49]: > 50 µg/mL
- IC50 [50]: > 50 µg/mL
- IC50 [51]: > 50 µg/mL
- IC50 [52]: 0.137 µg/mL
- IC50 [53]: 0.145 µg/mL
- IC50 [54]: 0.062 µg/mL
- IC50 [55]: 0.592 µg/mL
- IC50 [56]: 0.062 µg/mL
- IC50 [57]: > 50 µg/mL
- IC50 [58]: > 50 µg/mL
